Measured values as given in patent publication WO2023190851A1 (dated 2023).

Biological target: SARS-CoV-2 Spike RBD, His Tag (BA.2/Omicron) (SARS-CoV-2, Omicron BA.2 lineage, UniProt P0DTC2 319-537)

B1: natural human IgG antibody (HIG001677) (antibody, V domains shown)
VH: EVQLVESGGGLVQPGGSLRLACAASGLTVSRNYMNWVRQAPGKGLEWVSLVYPGGSTFYADSVKGRFTISRDNSKNTLYLQMNSLRADDTAVYYCAREVRGRGDYWGQGTLVTVST
VL: DIQMTQSPSSLSASVGDRVTITCQASQDINKYLNWYQQKPGKAPKLLIYDASNLEPGVPSRFSGSGSGTDFTFTISNLQPEDIATYYCQNYDNLPQTFGQGTRLEIKR
In the case of B1, the Kd is reported as 8.58 nM.
